Numbering of substitutions follows the chain as printed.

In test [1] the target is T1, human PDGFRα-Fc fusion protein (PDGFRα extracellular region [1-514 amino acids] and mouse IgG2a constant … (human; mouse, UniProt P16234 24-514).
T1 construct: not shown: mouse IgG2a constant region
Briefly: EIA, PDGFRα-Fc immobilised on plate, serially diluted COS-1 culture supernatant.

Test [2] has as its target T1, human PDGFRα-Fc fusion protein (PDGFRα …). Briefly: EIA, PDGFRα-Fc immobilised on plate, serially diluted COS-1 culture supernatant, anti-human IgG constant region HRP detection.

T1 sequence (P16234 24-514 limits assumed): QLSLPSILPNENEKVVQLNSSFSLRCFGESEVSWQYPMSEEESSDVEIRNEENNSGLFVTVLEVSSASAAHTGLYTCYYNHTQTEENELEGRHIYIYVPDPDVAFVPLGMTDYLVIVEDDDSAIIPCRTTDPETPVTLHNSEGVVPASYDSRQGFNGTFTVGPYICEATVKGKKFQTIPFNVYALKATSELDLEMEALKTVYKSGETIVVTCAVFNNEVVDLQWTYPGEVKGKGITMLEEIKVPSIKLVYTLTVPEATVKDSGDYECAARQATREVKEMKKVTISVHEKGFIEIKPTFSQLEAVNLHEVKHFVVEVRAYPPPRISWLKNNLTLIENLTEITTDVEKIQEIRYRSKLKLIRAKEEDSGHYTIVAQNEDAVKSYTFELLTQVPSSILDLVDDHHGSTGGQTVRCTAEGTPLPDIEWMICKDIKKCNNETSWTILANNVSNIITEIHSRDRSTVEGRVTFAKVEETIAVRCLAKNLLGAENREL

B1: 21A1 antibody (mouse anti-human PDGFRα monoclonal antibody, clone number 21A1) (antibody, V domains shown)
VH: EVKLLESGGGLVQPGGSLKLSCAASGFDFSIFWMSWVRQAPGKGLEWIGEINPDSSTINYTPSLKDKFIISRDNAKNTLYLQMSKVRSEDTALYFCARQRFGPYWGQGTLVTVSA
VL: DIVMTQSHKFMSTSVGDRVSITCKASQDVSTAVAWYQQKPGQSPNLLIYSASYRYTGVPDRFTGSGSGTDFTFTISSVQAEDLAVYYCQQYYSTPYTFGGGTKLEIKR
notes: no cleavage site is stated; also called monoclonal antibody 21A1; hPDGFRα(21A1) MoAb
As to B1, the binding result in test [1] was “binds”.

B2: 24A1 antibody (mouse anti-human PDGFRα monoclonal antibody, clone number 24A1) (antibody, V domains shown)
VH: DVQLQESGPGLVKPSQSLSLTCTVTGYSITSDYAWNWIRQFPGNKLEWVGYISYSGSTSYNPSLKSRISITRDTSKNQFFLQLNSVTTEDTATYYCARRDYRYGYWYFDVWGAGTTVTVSS
VL: DIQMNQSPSSLSASLGDTITITCHASQNIHVWLTWYQQKPGNIPKLLIYKASNLHTGVPSRFSGSGSGTGFTLTISSLQPEDIATYYCQQGQSYPWTFGGGTKLEIKR
notes: no cleavage site is stated; also called monoclonal antibody 24A1; mouse anti-PDGFRα antibody (24A1 antibody)
On to B2, for which, in test [1], the binding result is “binds”.

B3: humanized anti-PDGFRα antibody (24A1) (antibody, human IgG1, kappa, V domains shown)
VH: DVQLQESGPGLVKPSQTLSLTCTVSGYSITSDYAWNWIRQPPGKGLEWVGYISYSGSTSYNPSLKSRISITRDTSKNQFSLKLSSVTAADTAVYYCARRDYRYGYWYFDVWGAGTTVTVSS
VL: B2 VL with L11V, L15V, T18R, I19V, N42K, I43A, G70D, I83F
notes: also called humanized 24A1 antibody; Hu PDGFRa (24A1)
Turning to B3, the binding result in test [2] is listed as “binds”.
